# Data as given in US8883967B2, “Branched amphipathic oligo-peptides that self-assemble into vesicles” (Kansas State University Research Foundation, priority 2009, dated 2014).
# No end group written: not given here.
# How the values were obtained:
# [1] = tested on: Human Lens Epithelial (HLE) cells; experiment: Uptake of 5,6-carboxyfluorescein-loaded peptide vesicles by cells, fluorescence microscopy; type: cell-based; conditions: 12 hours of incubation, 37° C.
# Procedure: Human Lens Epithelial (HLE) cells were obtained from Dr. Dolores Takemoto's lab (Kansas State University). These adherent cells were grown to roughly 80% confluence on coverslips placed in 12 well plates with 1 ml Dulbecco's Modified Eagle Medium (DMEM), Stock solutions of bis(h9)-K-K4 and bis(h5)-K-K4 dissolved in DDI water were mixed together using the protocol described in Example 4 to achieve a final concentration of 0.025 mM of each peptide in the mixture and 600 μL final volume. The sample was then dried by spinning in a speed vacuum for about 3 hours until almost all of the solvent was removed. The dried sample was then rehydrated with a 0.5 mM solution of the fluorescent dye 5,6-carboxyfluorescein (MW=376.3 Da) dissolved in DDI water. The pH of the sample was adjusted to 7.4 using a dilute solution of NaOH. Next, 500 μL of the DMEM was replaced with the peptide vesicle solution loaded with 5,6-carboxyfluorescein. The cells were then allowed to grow at 37° C. under 5% CO2. At 4 hours and 12 hours after incubation with dye-loaded vesicles, the cells were washed twice with phosphate buffered saline (PBS) and fixed using 0.4% paraformaldehyde. The fixed cells were then mounted on a glass slide and pictures were taken using a fluorescence microscope. […]
# [2] = linear peptides, low and neutral pH; cited from earlier work
# [3] = Sedimentation analysis (analytical ultracentrifugation), N-acetyl capped peptides; type: physicochemical; conditions: 1 mM, DDI water, pH 7, 40,000 rpm, 20° C.
# Procedure: In this procedure, N-acetyl capped peptides were prepared using the protocol described in Example 1 above and subjected to analytical ultracentrifugation for sedimentation analysis. Three different samples were prepared from bis(h5)-K-K4 alone, bis(h9)-K-K4 alone, and a 1:1 molar ratio mixture of the two peptides, each with a final peptide concentration of 1 mM dissolved in DDI water and pH adjusted to 7 using a dilute solution of NaOH. For the analyses, 350 μL of each sample was loaded into a Beckman XL-I Analytical Ultracentrifuge cell and spun at 40,000 rpm for 3 hours at 20° C., with data collected using interference optics. The raw data was then processed using DCDT+2.2.1 software to obtain g(s*) distribution. Theoretical distribution (sum of individual peptide distribution) was obtained using OriginLab v. 7.0 software.
# [4] = Confocal microscopy of vesicles in 5,6-carboxyfluorescein solution; type: physicochemical; conditions: single peptide alone
# Procedure: About 25 μL of the sample was then mounted on a glass slide and covered with a coverslip and sealed. The slides were allowed to sit for 48-72 hours before pictures were taken using a confocal microscope. Upon sitting in the unbuffered 5,6-carboxyfluorescein solution for 48 hours, larger spherical entities than observed with TEM are formed, which can be seen with the light microscope. Specifically, in FIG. 7, peptides bis(h5)-K-K4 and bis(h9)-K-K4 at a 1:1 molar ratio when added to DDI water form larger vesicles on the order of 2-10 μm in diameter. […] The vesicles in this figure are large enough to have fluorescently-labeled peptide aggregates trapped within the vesicles.
substance,measurement,setting,value
"5,6-carboxyfluorescein [free fluorescent dye]",cellular uptake of dye,[1],hardly any uptake of the dye
"KKKFLIVIGSIIKKK [Linear … flanked by three lysine groups, from earlier studies (US 2009/0105449)]",vesicle formation,[2],do not form vesicles
"KKKFLIVIKKK [Linear FLIVI flanked by three lysine groups, from earlier studies (US 2009/0105449)]",vesicle formation,[2],do not form vesicles
"N-acetyl capped bis(h5)-K-K4: bis(h5)-K-K4 with the N-termini of both hydrophobic tails capped with an acetyl group (chain 1 Ac-FLIVIKKKKK-NH2; chain 2 Ac-FLIVI; also: branched: chain 2 tail attached to branch lysine K6 of chain 1, linkage amine not given here)",apparent S value,[3],around 6 S
"N-acetyl capped bis(h9)-K-K4: bis(h9)-K-K4 with the N-termini of both hydrophobic tails capped with an acetyl group (chain 1 Ac-FLIVIGSIIKKKKK-NH2; chain 2 Ac-FLIVIGSII; also: branched: chain 2 tail attached to branch lysine K10 of chain 1, linkage amine not given here)",apparent S value,[3],~10 S
"bis(h5)-K-K4: Branched amphipathic peptide: two FLIVI (SEQ ID NO: 4) tails on a branch lysine, KKKK C-terminal carboxyamide",ability of the peptide by itself to form vesicle structures,[4],unable to form these structures
"bis(h9)-K-K4: Branched amphipathic peptide: two FLIVIGSII (SEQ ID NO: 3) tails on a branch lysine, KKKK C-terminal carboxyamide",ability of the peptide by itself to form vesicle structures,[4],able to form these vesicle-like structures
same,stability of vesicle-like structures formed by the peptide alone,[4],somewhat unstable and rapidly fuse to produce the larger structures
